From publication PMC9865888

Biological target: S. aureus DNA gyrase fusion truncate GyrB27:A56 (GKdel) (Staphylococcus aureus) (UniProt P66937)
Experiment: crystal structure; 2.8 Å, space group P6_(1); microbatch under oil, 20 °C; complex with 20-447T DNA duplex, zoliflodacin and MnCl2; 90 mM Bis-Tris pH 6.3, 9% PEG 5 kMME

Substance: S. aureus DNA gyrase fusion truncate GyrB27:A56 (GKdel) (from UniProt P66937 409-644; Q99XG5 2-491) (enzyme)
- stoichiometry N: 2
